Assay results published in article PMC3668577, “Structure of diaminohydroxyphosphoribosylaminopyrimidine deaminase/5-amino-6-(5-phosphoribosylamino)uracil reductase from Acinetobacter baumannii” (Acta Crystallographica Section F: Structural Biology and …, 2013).

How the values were obtained:
[1] = target: Acinetobacter baumannii diaminohydroxyphosphoribosylaminopyrimidine deaminase/5-amino-6-(5-phosphoribosylamino)uracil reductase (RibD) (Acinetobacter baumannii (strain ATCC 19606)); experiment: SEC; Superdex 200 26/60, 50 mM Tris-HCl, 250 mM NaCl pH 7.5; both Ni2+ column peaks ran as homogeneous samples of approximate mass 58 kDa (tagged subunit 42 038 Da)
[2] = target: Acinetobacter baumannii diaminohydroxyphosphoribosylaminopyrimidine deaminase/5-amino-6-(5-phosphoribosylamino)uracil reductase (RibD) (Acinetobacter baumannii (strain ATCC 19606)); experiment: crystal structure; form I (apo, C222(1), 2.2 A, two subunits in the asymmetric unit related by a noncrystallographic twofold) and form II (grown with 5 mM GMP, P4(3)2(1)2, 2.0 A, same dimer generated by a crystallographic twofold); crystals grown at 293 K
AbRibD = target: T1, AbRibD (Acinetobacter baumannii, UniProt D0CB74); experiment: X-ray crystallography (cocrystallization), […] A; conditions: 5 mM GMP; crystals at pH 5, 293 K; NADPH-binding site of reductase domain (adenine pocket); second site on surface at occupancy 0.5; authors judge binding not biologically relevant
T1 construct: gene ribD; full length, 362 residues untagged (386 with tag); N-terminal His6-TEV tag (24 extra residues) kept; E. coli BL21(DE3); homodimer; subunit 42038 Da tagged
T1 sequence (D0CB74 1-361): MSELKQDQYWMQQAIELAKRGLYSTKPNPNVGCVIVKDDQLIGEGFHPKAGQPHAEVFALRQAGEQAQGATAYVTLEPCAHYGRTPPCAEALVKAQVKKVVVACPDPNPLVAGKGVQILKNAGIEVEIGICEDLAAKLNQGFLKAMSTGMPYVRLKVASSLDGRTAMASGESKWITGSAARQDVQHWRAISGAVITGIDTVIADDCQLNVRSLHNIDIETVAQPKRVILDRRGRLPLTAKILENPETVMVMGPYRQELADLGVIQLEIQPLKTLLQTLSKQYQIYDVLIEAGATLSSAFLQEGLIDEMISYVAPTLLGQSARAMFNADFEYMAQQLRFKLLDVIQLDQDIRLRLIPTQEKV

Acinetobacter baumannii diaminohydroxyphosphoribosylaminopyrimidine deaminase/5-amino-6-(5-phosphoribosylamino)uracil reductase (RibD) (enzyme)
stoichiometry N [1]: 2 | stoichiometry N [2]: 2

Nc1nc2c(ncn2[C@@H]2O[C@H](COP(=O)(O)O)[C@@H](O)[C@H]2O)c(=O)[nH]1 [GMP]
X-ray crystallography (cocrystallization), 1.99 A (AbRibD): a GMP molecule was observed in the NADPH-binding site of the reductase domain
